These results are taken from article PMC4633474, “Kinetic properties and stability of glucose dehydrogenase from Bacillus amyloliquefaciens SB5 and its potential for cofactor regeneration” (AMB Express, 2015).

Common to all, as to test: purified protein
Common to all, as to type: biochemical, Bacillus amyloliquefaciens

Substrate in data set [1]: NC(=O)c1ccc[n+]([C@@H]2O[C@H](COP(=O)(O)OP(=O)(O)OC[C@H]3O[C@@H](n4cnc5c(N)ncnc54)[C@H](O)[C@@H]3O)[C@@H](O)[C@H]2O)c1
The settings on record: co-substrate glucose, apparent, pH and temperature of kinetics not stated (default assay Tris-Cl pH 8 or CPB buffer, 37 °C), varied: cofactor.

Substrate in data set [2]: NC(=O)c1ccc[n+]([C@@H]2O[C@H](COP(=O)(O)OP(=O)(O)OC[C@H]3O[C@@H](n4cnc5c(N)ncnc54)[C@H](OP(=O)(O)O)[C@@H]3O)[C@@H](O)[C@H]2O)c1
The following applies: co-substrate glucose, apparent, pH and temperature of kinetics not stated (default assay Tris-Cl pH 8 or CPB buffer, 37 °C), varied: cofactor.

Substrate in data set [3]: OC[C@H]1O[C@@H](O)[C@H](O)[C@@H](O)[C@@H]1O
The following applies: with 0.5 mM NADP+, apparent, pH and temperature of kinetics not stated (default assay Tris-Cl pH 8 or CPB buffer, 37 °C).

B1: GluDH-BA (Bacillus amyloliquefaciens) (protein)
chain: MYTDLKGKVVAITGASSGLGKAMAIRFGQEQAKVVVNYYSNEKDAQTVKEEIQKAGGEAVIIQGDVTKEEDVKNIVQTAVKEFGTLDVMINNAGMENPVQSHEMPLKDWNKVINTNLTGAFLGSREAIKYYVENDIQGNVINMSSVHEMIPWPLFVHYAASKGGIKLMTETLALEYAPKRIRVNNIGPGAINTPINAEKFADPVQRKDVESMIPMGYIGEPEEIAAVAVWLASKESSYVTGITLFADGGMTKYPSFQAGRG
notes: full length (261 aa, 28 kDa), 6xHis inserted right after start Met, pET23b, E. coli BL21(DE3), Ni-purified; tag cleavage not mentioned
As usually defined, the Km is the substrate concentration at which the rate is half of its maximum. As usually defined, the kcat is the maximal rate divided by the concentration of active sites. On to B1, for which the Michaelis-Menten constant (Km) in data set [1] came to 250 ± 30 µM; in data set [2], 50 ± 4 µM; in data set [3], 5500 ± 280 µM. Besides, the turnover number (kcat) in data set [2] and in data set [3] was 70 ± 0.3 s⁻¹ each time.
